{"source": "patent US20260231954A1", "about": "“PESTICIDAL ENZYMES FOR USE ON NEMATODES, INSECTS, AND MOLLUSKS” (priority 2023, published 2026)", "molecules": {"B1": {"name": "Chitinase 19F (SEQ ID NO: 182): Streptomyces coelicolor Chitinase F (Chi19F) (protein)", "chain": "ASCSSYHAWSADANYNTGDIVRYTDGKAYIAEHANPGYDPLISTWYWDPYACDGGSQTPVGNFVVSEAQFNQMFPGRNSFYTYSGLTAALSAYPGFANTGSDTTKKQEAAAFLANVSHETGGLVYIVEQNTANYPHYCDWNQPYGCPAGQAAYYGRGPIQLSWNFNYKAAGDALGIDLLGNPWLVQNDAAVAWKTGLWYWNTQSGPGTMTPHNAMVNGAGFGQTIRSINGSLECDGKNPAQVQSRVTKYQQFAQILGVSPGGNLYC", "modifications": "Chitinase F (Chi19F); Streptomyces coelicolor"}, "B2": {"name": "Esterase B (SEQ ID NO: 89): Bacillus subtilis Esterase (EstB without signal sequence) (protein, listed as Bacillus subtilis)", "chain": "ESVHNPVVLVHGISGASYNFFAIKNYLISQGWQSNKLYAIDFYDKTGNNLNNGPQLASYVDRVLKETGAKKVDIVAHSMGGANTLYYIKYLGGGNKIQNVVTLGGANGLVSSTALPGTDPNQKILYTSIYSLNDQIVINSLSRLQGARNIQLYGIGHIGLLSNSQVNGYIKEGLNGGGLNTN", "modifications": "Esterase (EstB H191 without signal sequence)"}}, "key": {"[1]": {"tested_on": "Fall armyworm (Spodoptera frugiperda)", "experiment": "Diet-surface overlay (DSO) bioassay on Fall armyworm", "assay_type": "in vivo", "details": "for Larva Stage I / Larva Stage II / Larva Stage III / Larva Stage IV / Dead Larva: Fall armyworm", "description": "Diet-surface overlay bioassays are conducted with artificial diet mixes without antibiotics in 1.5 cm^2 cell bioassay trays(s). Artificial diets are commercially available from Southland Products Inc. Diets were prepared by dispersing 0.5 mL of molten diet to each 1.5 cm^2 cell. After solidification, 0.1 mL enzyme treatments were dispersed on top of diet in each cell and the tray was gently rocked in an orbital shaker to spread the liquid uniformly over the diet surface. Trays were placed under clean airflow until the surface of each cell was uniformly dried. One or two 16-cell sections were used per treatment (the number in larvae treated was 16 or 32).\nOne healthy first instar larva was placed into each treatment cell, each 16-cell section was covered with a re-sealable lid and incubated at 27° C. and light-dark period of 16:8 hrs. After 7 days, and according to the species, the number of individuals in the following developmental categories was recorded.\nNegative/untreated controls were treated with filtered water and positive controls were treated with lethal doses of Bacillus thuringiensis subsp. Kurstaki (Btk) spores at 1000 ppm."}, "[2]": {"tested_on": "soybean cyst nematode (SCN, Heterodera glycines)", "experiment": "Soybean cyst nematode reproduction on soybean after seed treatment, controlled environment (cysts per gram of root tissue or per plant)", "assay_type": "in vivo"}, "[3]": {"tested_on": "soybean cyst nematode (SCN)", "experiment": "SCN reproduction after application of enzyme or recombinant strain to soil", "assay_type": "in vivo, Heterodera glycines", "details": "Table 34; for % Comparison to Control (figure in parentheses): change vs water control; for % Comparison to Control: first figure, water control = 100%; for Average cysts per g of root tissue: free enzyme 0.5 mL/plant to soil, soybean 2830E3, 3 weeks", "description": "To determine the efficacy of nematicidal enzymes applied to soil, a controlled environment trial was performed with 7-day old soybean plants (variety 2830E3) grown in pots. Enzymes were produced as described in Example 2. Prior to inoculation, 0.5 mL of neutral protease (SEQ ID NO: 127), esterase B (SEQ ID NO: 89), or chitinase 19F (SEQ ID NO: 182) free enzyme solution was applied to the soil around the base of each plant, or 0.5 mL of water was applied for the control (30 plants per treatment). Then, hatched SCN juveniles were applied to the soil around each plant as described in Example 2, and three weeks later, cysts per gram of root tissue was determined as described in Example 2. The data was analyzed as in Example 2 and appears in Tables 33 and 34.\nTo determine the efficacy of recombinant strains applied to soil, a controlled environment trial was performed as described in Example 18 above (Reduction of soybean cyst nematode reproduction by enzymes applied to soil), with the exception that a recombinant strain expressing neutral protease (SEQ ID NO: 127) was applied instead of a free enzyme solution. The recombinant strain was produced as in Example 3, and the treatment applied to soil as a whole cell broth."}, "[4]": {"tested_on": "SCN juveniles (SCN HG type 1.2.5.7, race 2)", "experiment": "In-vitro plate assay of SCN juvenile viability (difference in percent death)", "assay_type": "in vivo", "description": "(§1) SCN eggs were obtained from SCN HG type 1.2.5.7, race 2. Eggs were rinsed 4 times with sterile water. Eggs were transferred to a 6-well plate and resuspended in 5 mL of 3 mM ZnSO4. The plate was sealed with parafilm, covered with aluminum foil to prevent light from entering the plate, and placed in a plate growth chamber at 25° C. and 80% relative humidity. After 6-7 days of incubation, an estimate of hatched SCN juveniles was obtained from the well to determine the overall number of juveniles per 10 μL. The concentration of the hatchery solution was adjusted until it consisted of 20-30 juveniles per 10 μL.\nPotato dextrose agar media containing chloramphenicol and chlortetracycline was prepared and added to sterile twenty-four-well cell culture plates (1 mL per well). The plates were divided according to the pre-determined N-value for each treatment (N=12-24). Each treatment being tested was added to the agar surface within each well at a rate of 40 μL per well. Without allowing the treatments to dry, 10 μL of the prepared nematode mixture was added to the agar surface within each well.\nTo quantify the treatments' effects on nematode viability, the nematodes were examined under a dissecting microscope at 20× magnification. Initial (TO) values for the number of live juveniles, number of dead juveniles and total number of juveniles were recorded immediately after preparation of each well. The plates were then wrapped in parafilm around the open edge, encased in aluminum foil, and placed in secondary containment. The secondary containment was placed in a plant growth chamber at 25° C. and 80% relative humidity. At approximately 24 hours post addition of juveniles, the plates were evaluated, and the number of live juveniles, dead juveniles and total number of juveniles were recorded (T24).\nThe difference in percent death at T0 vs T24 was calculated by subtracting the percent dead at TO [(#dead juveniles/total #juveniles)×100] from the percent dead at T24 [(#dead juveniles/#total juveniles originally present)×100]. […] If the ANOVA indicated a significant difference existed among treatments, Tukey's HSD post hoc test was used to perform a pairwise contrast between each set of treatments. Different letters denote statistically significant results at P<0.05.\nas §1, with “from” for “from SCN”, “rinsed four” for “rinsed 4”, “and 80-90%” for “and 80%”, “from each” for “from the”\nPotato dextrose agar media containing chloramphenicol and chlortetracycline was prepared and added to sterile twenty-four-well cell culture plates (1 mL per well). The plates were divided according to the pre-determined N-value for each treatment (N=24). […]\nTo quantify the treatments' effects on nematode viability, the nematodes were examined under a dissecting microscope at 20× magnification. Initial (TO) values for the number of live juveniles, number of dead juveniles and total number of juveniles were recorded. […]"}, "[5]": {"details": "Table 48, chitinases, number of individuals of n = 32, DSO bioassay"}, "[6]": {"details": "Table 11, free enzyme seed treatment 2 fl. oz. per unit of seed (ILEVO 0.15 mg active ingredient per seed), soybean P18A98X, 3 weeks after inoculation"}, "[7]": {"details": "Table 50, esterases, number of individuals of n = 32"}}, "data": [{"molecule": "B1", "values": [{"measurement": "Larva Stage I", "setting": "[1]; [5]", "value": 4}, {"measurement": "Larva Stage II", "setting": "[1]; [5]", "value": 14}, {"measurement": "Larva Stage III", "setting": "[1]; [5]", "value": 5}, {"measurement": "Larva Stage IV", "setting": "[1]; [5]", "value": 6}, {"measurement": "Dead Larva", "setting": "[1]; Table 48, chitinases, number of individuals of n = 32, DSO bioassay, dose per treatment in mU/mL Diet", "value": 3}, {"measurement": "Average cysts per g of root tissue", "setting": "[2]; [6]", "value": "48.8 cysts per g of root tissue"}, {"measurement": "Average cysts per g of root tissue", "setting": "[2]; Table 12, free enzyme seed treatment 2 fl. oz. per unit of seed (ILEVO 0.15 mg active ingredient per seed), soybean P18A98X", "value": "296.9 cysts per g of root tissue"}, {"measurement": "% Comparison to Control (figure in parentheses)", "setting": "[3]", "value": "−32", "unit": "%"}, {"measurement": "% Comparison to Control", "setting": "[3]", "value": "reduced SCN reproduction"}, {"measurement": "% Comparison to Control", "setting": "[3]; listed as Chitinase 19F free enzyme (SEQ ID NO: 182)", "value": 68, "unit": "%"}, {"measurement": "Average cysts per g of root tissue", "setting": "[3]", "value": "95.6 cysts per g of root tissue"}, {"measurement": "Difference in Percent Death of Nematodes for 0 to 24 Hours", "setting": "[4]; Table 32, 40 μL per well of each treatment, water only 4%", "value": 24, "unit": "%"}]}, {"molecule": "B2", "values": [{"measurement": "Larva Stage I", "setting": "[1]; [7]", "value": 3}, {"measurement": "Larva Stage II", "setting": "[1]; [7]", "value": 4}, {"measurement": "Larva Stage III", "setting": "[1]; [7]", "value": 14}, {"measurement": "Larva Stage IV", "setting": "[1]; [7]", "value": 10}, {"measurement": "Dead Larva", "setting": "[1]; Table 50, esterases, number of individuals of n = 32, DSO bioassay, dose per treatment in U/mL Diet", "value": 1}, {"measurement": "individuals with delayed development", "setting": "[1]; text to Table 50, esterases, n = 32", "value": 67, "unit": "%"}, {"measurement": "Average cysts per g of root tissue", "setting": "[2]; [6]", "value": "19.6 cysts per g of root tissue"}, {"measurement": "Average cysts per g of root tissue", "setting": "[2]; Table 15, seed treated with whole cell broth, soybean P18A98X", "value": "56.3 cysts per g of root tissue"}, {"measurement": "Average cysts per g of root tissue", "setting": "[2]; Table 25, dried formulation 0.04 units of enzyme activity per seed, liquid 2 fl oz per unit of seed, soybean 3230E3", "value": "233.2 cysts per g of root tissue"}, {"measurement": "% Comparison to Control (figure in parentheses)", "setting": "[3]", "value": "−16", "unit": "%"}, {"measurement": "% Comparison to Control", "setting": "[3]", "value": "reduced SCN reproduction"}, {"measurement": "% Comparison to Control", "setting": "[3]; listed as Esterase B free enzyme (SEQ ID NO: 89)", "value": 84, "unit": "%"}, {"measurement": "Average cysts per g of root tissue", "setting": "[3]", "value": "117.3 cysts per g of root tissue"}, {"measurement": "Difference in Percent Death of Nematodes for 0 to 24 Hours", "setting": "[4]; Table 28, 40 μL of each treatment per well, fertilizer diluted to 3% v/v", "value": 3, "unit": "%"}, {"measurement": "difference in percent death over twenty-four hours relative to the combination treatment", "setting": "[4]; single treatment vs Esterase B + 10-34-0 fertilizer combination", "value": "−7", "unit": "%"}]}]}
